Patent US5187153A, “Methods of treatment using Alzheimer's amyloid polypeptide derivatives” (Scios Nova Inc., priority 1990, dated 1993)
pKi: −log10 of the molar value.

Columns and labels:
Elastase = molecular target: T1, Elastase (Sus scrofa, UniProt P00772); test: Protease inhibition, fluorogenic MCA substrate: elastase; assay type: biochemical, porcine; details: Elastase; substrate Suc-Ala-Pro-Ala-MCA; pH 7.0; 25° C.
T1 construct: elastase (33 U/mg from porcine pancreas); from tissue; host or cells: porcine pancreas
Description: (§1) The effects of A4 inhibitor on serine- and thiol- proteases were examined as follows: trypsin (17,000 units/mg from porcine pancreas), factor Xa and β-thrombin (gifts from Dr. Iwanagu, Kyushu University, Fukuoka, Japan), tryptase and chymase (both from rat peritoneal mast cells purified as described in Kido et al., Arch Biochem Biophys 239:436-443 (1985)), α-chymotrypsin (0.75 U/mg from bovine pancreas), elastase (33 U/mg from porcine pancreas), papain, cathepsin B (from rat liver purified as described in Towatari et al., Eur J Biochem 102:279-289 (1979)), plasmin (0.16 U/mg from human plasma), urokinase (0.75 U/mg from human kidney cells, Sigma Chemical Co.), tissue kallikrein (50 U/mg from porcine pancreas) or plasma kallikrein (9.4 U/mg from human plasma) was preincubated with various concentrations of the inhibitor in a total volume of 1.5 ml of buffer containing bovine serum albumin (0.1 mg/ml). […] The amount of 7-amino-4-methylcoumarin liberated from the substrates was determined fluorometrically with excitation and emission wavelengths of 380 nm and 460 nm, respectively, in a Hitachi fluorescence spectrophotometer, 650-10MS model, as reported in Kido et al. (1988), supra. Protein concentration was determined with bicinchoninic acid protein assay reagent as described by Smith et al., Anal. Biochem. 150:76-85 (1985). […]

Plasmin = molecular target: T2, Plasmin (Homo sapiens, UniProt P00747); test: Protease inhibition, fluorogenic MCA substrate: plasmin; assay type: biochemical
T2 construct: plasmin (0.16 U/mg from human plasma); from tissue; host or cells: human plasma
Description: as §1

Urokinase = molecular target: T3, Urokinase (Homo sapiens, UniProt P00749); test: Protease inhibition, fluorogenic MCA substrate: urokinase; assay type: biochemical
T3 construct: urokinase (0.75 U/mg from human kidney cells, Sigma Chemical Co.); purchased Sigma Chemical Co; host or cells: human kidney cells
Description: as §1

Plasma kallikrein = molecular target: T4, Plasma kallikrein (Homo sapiens, UniProt P03952); test: Protease inhibition, fluorogenic MCA substrate: plasma kallikrein; assay type: biochemical
T4 construct: plasma kallikrein (9.4 U/mg from human plasma); from tissue; host or cells: human plasma
Description: as §1

Tissue kallikrein = molecular target: T5, Tissue kallikrein (Sus scrofa, UniProt P00752); test: Protease inhibition, fluorogenic MCA substrate: tissue kallikrein; assay type: biochemical, porcine
T5 construct: tissue kallikrein (50 U/mg from porcine pancreas); from tissue; host or cells: porcine pancreas
Description: as §1

Papain = molecular target: T6, Papain (Carica papaya, UniProt P00784); test: Protease inhibition, fluorogenic MCA substrate: papain; assay type: biochemical
T6 sequence (P00784 134-345): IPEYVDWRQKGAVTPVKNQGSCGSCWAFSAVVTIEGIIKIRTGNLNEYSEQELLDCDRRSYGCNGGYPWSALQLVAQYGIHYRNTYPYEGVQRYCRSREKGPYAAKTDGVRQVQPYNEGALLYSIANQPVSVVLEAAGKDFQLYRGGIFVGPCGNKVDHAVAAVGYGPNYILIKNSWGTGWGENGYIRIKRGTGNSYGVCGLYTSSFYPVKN
Description: as §1

Cathepsin B = molecular target: T7, Cathepsin B (Rattus norvegicus, UniProt P00787); test: Protease inhibition, fluorogenic MCA substrate: cathepsin B; assay type: biochemical
T7 construct: cathepsin B (from rat liver purified as described in Towatari et al); from tissue; host or cells: rat liver
Description: as §1

T5 sequence (P00752 8-246): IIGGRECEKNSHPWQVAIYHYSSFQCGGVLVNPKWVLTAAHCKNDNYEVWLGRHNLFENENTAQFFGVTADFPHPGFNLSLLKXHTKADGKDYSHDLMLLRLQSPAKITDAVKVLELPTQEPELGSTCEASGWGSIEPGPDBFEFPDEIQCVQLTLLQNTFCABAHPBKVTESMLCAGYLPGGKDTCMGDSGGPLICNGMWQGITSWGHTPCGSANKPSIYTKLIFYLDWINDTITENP
T4 sequence (P03952 20-638): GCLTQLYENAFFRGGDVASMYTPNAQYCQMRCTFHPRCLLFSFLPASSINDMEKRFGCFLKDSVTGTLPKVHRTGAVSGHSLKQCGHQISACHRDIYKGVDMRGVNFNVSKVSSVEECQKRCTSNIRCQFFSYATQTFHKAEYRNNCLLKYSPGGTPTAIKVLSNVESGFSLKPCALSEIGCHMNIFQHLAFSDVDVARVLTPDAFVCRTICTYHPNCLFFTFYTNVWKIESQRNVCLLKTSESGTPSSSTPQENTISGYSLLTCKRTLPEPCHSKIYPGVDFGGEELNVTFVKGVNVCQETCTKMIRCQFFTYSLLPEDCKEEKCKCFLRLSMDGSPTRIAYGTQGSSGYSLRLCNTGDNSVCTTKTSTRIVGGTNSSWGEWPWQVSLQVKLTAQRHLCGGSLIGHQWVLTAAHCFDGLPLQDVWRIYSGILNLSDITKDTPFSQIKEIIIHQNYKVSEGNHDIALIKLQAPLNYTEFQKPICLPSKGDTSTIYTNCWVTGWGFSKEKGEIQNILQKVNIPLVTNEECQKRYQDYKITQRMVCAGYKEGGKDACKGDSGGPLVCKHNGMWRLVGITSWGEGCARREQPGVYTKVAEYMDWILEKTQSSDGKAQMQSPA
T7 sequence (P00787 80-339): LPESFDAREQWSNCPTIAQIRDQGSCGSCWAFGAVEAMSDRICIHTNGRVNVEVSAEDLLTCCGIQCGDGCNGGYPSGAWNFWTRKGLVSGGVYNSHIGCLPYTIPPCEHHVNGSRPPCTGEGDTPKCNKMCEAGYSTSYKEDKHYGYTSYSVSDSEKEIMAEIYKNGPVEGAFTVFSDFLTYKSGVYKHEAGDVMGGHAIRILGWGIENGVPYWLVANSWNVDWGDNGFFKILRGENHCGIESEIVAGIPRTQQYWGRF
T2 sequence (P00747 581-810 limits assumed): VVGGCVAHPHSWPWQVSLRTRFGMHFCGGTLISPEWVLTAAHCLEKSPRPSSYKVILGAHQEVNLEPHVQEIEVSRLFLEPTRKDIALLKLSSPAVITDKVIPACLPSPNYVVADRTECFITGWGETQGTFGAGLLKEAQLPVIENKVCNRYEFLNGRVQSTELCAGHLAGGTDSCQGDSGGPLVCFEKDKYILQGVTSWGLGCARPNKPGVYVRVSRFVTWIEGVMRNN
T2 sequence (P00747 97-580 partner limits assumed): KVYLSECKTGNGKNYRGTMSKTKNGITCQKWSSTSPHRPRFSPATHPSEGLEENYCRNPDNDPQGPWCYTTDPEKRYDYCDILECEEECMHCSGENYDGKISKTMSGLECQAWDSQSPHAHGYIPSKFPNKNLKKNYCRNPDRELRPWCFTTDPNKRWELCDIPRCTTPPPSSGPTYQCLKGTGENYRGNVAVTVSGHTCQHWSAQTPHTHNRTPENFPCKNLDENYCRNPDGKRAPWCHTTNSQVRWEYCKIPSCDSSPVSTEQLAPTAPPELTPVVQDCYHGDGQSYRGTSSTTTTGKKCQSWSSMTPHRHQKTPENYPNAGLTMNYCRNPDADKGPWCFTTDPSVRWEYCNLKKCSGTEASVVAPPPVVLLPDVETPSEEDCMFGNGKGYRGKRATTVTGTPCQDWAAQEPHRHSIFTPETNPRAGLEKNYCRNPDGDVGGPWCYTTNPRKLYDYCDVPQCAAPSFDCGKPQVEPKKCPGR
T1 sequence (P00772 27-266): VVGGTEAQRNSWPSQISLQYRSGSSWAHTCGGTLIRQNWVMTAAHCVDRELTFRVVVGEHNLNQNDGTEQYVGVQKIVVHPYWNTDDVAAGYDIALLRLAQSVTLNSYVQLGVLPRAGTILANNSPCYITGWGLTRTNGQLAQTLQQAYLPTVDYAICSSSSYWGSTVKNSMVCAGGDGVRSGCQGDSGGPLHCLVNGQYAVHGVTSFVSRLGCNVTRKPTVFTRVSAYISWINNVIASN

## A4i: 57 amino acid Kunitz-type serine protease inhibitor encoded by the 168 bp insert of λAPCP168i4
Elastase
  pKi: < 6.00
Plasmin
  inhibition of plasmin (in words): strongly inhibits
Plasmin; Plasmin, substrate Boc-Val-Leu-Lys-MCA, pH 7.5, 25° C.
  pKi: 10.12
Urokinase
  inhibition of urokinase (in words): did not inhibit
Urokinase; Urokinase, substrate Glt-Gly-Arg-MCA, pH 7.5, 25° C.
  pKi: < 6.00
Plasma kallikrein
  inhibition of serum kallikrein (in words): inhibits
Plasma kallikrein; Plasma kallikrein, substrate Z-Phe-Arg-MCA, pH 7.8, 25° C.
  pKi: 7.13
Tissue kallikrein
  inhibition of tissue kallikrein (in words): inhibits
Tissue kallikrein; Tissue kallikrein, substrate Pro-Phe-Arg-MCA, pH 7.8, 25° C.
  pKi: 7.55
Papain
  inhibition of papain (in words): did not inhibit
Papain; Papain, substrate Z-Phe-Arg-MCA, pH 6.0, 25° C.
  pKi: < 6.00
Cathepsin B
  inhibition of cathepsin B (in words): did not inhibit
Cathepsin B; Cathepsin B, substrate Z-Phe-Arg-MCA, pH 6.0, 25° C.
  pKi: < 6.00
